Measurements published in the Human Domainome abundance scans (Beltran et al. 2025).

B1: Glucocorticoid receptor, residues 419 to 494; numbered along this chain, P04150 (parent)
chain: KLCLVCSDEASGCHYGVLTCGSCKVFFKRAVEGQHNYLCAGRNDCIIDKIRRKNCPACRYRKCLQAGMNLEARKTK

Variants of: B1
Test: abundance fitness (aPCA) (normalised: wild type 0, dead -1); higher = more abundant; growth selection in yeast, the domain comes from the species named
Conditions: Homo sapiens

Abundance fitness: each site, then its substitutions
R51: T -0.016 | G 0.009 | C -0.215 | F 0.051 | P -0.136 | L -0.031 | M 0.042 | N -0.031 | A -0.072 | W -0.083 | Q -0.002 | S -0.023 | I -0.134 | V -0.068
K62: Y -0.187 | W -0.505 | D -0.336 | E -0.2 | T -0.047 | A -0.015 | L -0.048 | N -0.031 | C 0.007 | R -0.05 | M -0.042 | G -0.105 | V -0.119 | S -0.166 | F -0.158 | Q -0.066 | P -0.867
C63: T -0.909 | M -0.075 | N -0.667 | W -0.889 | D -0.915 | Q -0.661 | A -0.28 | V -0.863 | G -0.06 | F -0.322 | I -0.546 | S -0.42 | R -0.772 | K -0.779 | Y -0.85 | L -0.741 | E -0.871 | H -0.813
L64: E 0.016 | C 0.025 | D -0.296 | F -0.107 | M -0.023 | K -0.01 | A -0.154 | G -0.273 | N -0.083
D44: T -0.023 | R -0.088 | L -0.189 | V -0.053 | S -0.08 | W -0.423 | K -0.062 | M 0 | F -0.381 | Y -0.37 | E 0.032 | Q -0.026 | H -0.11 | I -0.344 | P -0.323 | G -0.145 | N -0.073
I47: Q -0.183 | S -0.252 | H -0.304 | C -0.438 | E -0.216 | K -0.267 | V 0.015 | A -0.368 | M -0.143 | G -0.304 | T -0.125 | N -0.164 | D -0.072 | L -0.135 | F -0.449 | R -0.406 | P -0.442 | W -0.542
I46: R -0.012 | P -0.048 | A 0.031 | L -0.039 | H -0.045 | V -0.027 | T 0.029 | C -0.025 | E -0.009 | W -0.137 | Y 0.029 | N -0.002 | Q 0.064 | F 0.087 | S 0.005
C45: T -0.99 | F -0.649 | R -0.778 | H -0.168 | I -0.948 | Q -0.558 | L -0.917 | E -0.762 | W -0.932 | V -0.698 | K -1.27 | M -1.18 | A -0.797 | Y -0.704 | P -1.02
C55: W -0.588 | Y -0.66 | K -0.877 | S -0.707 | Q -0.838 | L -1.1 | G -0.814 | D -1.13 | I -0.801 | M -1.16 | V -0.739 | T -0.849 | H -0.911 | R -0.929 | F -1.02 | P -0.757
K53: H -0.038 | C -0.263 | R -0.015 | V -0.037 | G 0.039 | M 0.001 | D 0.083 | Y -0.026 | P -0.027 | E 0.058 | W -0.075 | A 0.014 | S -0.009 | I -0.091 | Q 0.016 | F -0.033 | T -0.024 | L -0.017
Y60: F 0.004 | A -0.425 | D -0.907 | W -0.036 | N -0.478 | M -0.07 | V -0.215 | K -0.011 | C -0.694 | P -0.724 | H -0.178 | I -0.09 | S -0.535 | G -0.809 | L 0.002
I50: G 0.009 | W -0.02 | V 0.013 | M 0.055 | D -0.032 | Y -0.143 | T -0.007 | E -0.028 | A -0.004 | Q 0.046 | H -0.153 | P 0.081 | N -0.018 | L 0.046 | S 0.015 | R 0.005
R59: Y -0.087 | F -0.513 | S -0.81 | G -0.825 | N -0.817 | L -0.017 | I -0.694 | A -0.702 | K -0.52 | M -0.171 | H 0.014 | D -0.609 | Q -0.259 | P -0.737 | W 0.017 | E -0.583 | V -0.783
R52: L -0.048 | W -0.112 | I -0.093 | A -0.051 | G -0.016 | S -0.12 | E -0.028 | P -0.203 | M -0.101 | C 0.051 | K -0.03 | T -0.129 | V -0.056
P56: E 0.015 | T -0.06 | K -0.108 | H -0.111 | I -0.19 | F -0.003 | Q -0.001 | V -0.064 | M -0.053 | R -0.076 | C 0.052 | S -0.035 | G -0.085 | L -0.047 | N 0.013 | A 0
R61: Y -0.089 | C -0.112 | E 0.026 | K -0.017 | V 0.064 | H -0.079 | D 0.016 | L 0 | A 0.054 | P -0.854 | F -0.13 | G -0.063 | S -0.004 | Q 0.101 | I -0.083
N54: D -0.015 | L -0.021 | A 0.05 | V -0.025 | K 0.049 | F -0.061 | W -0.064 | Q -0.006 | E -0.025 | C -0.136 | M -0.064 | G -0.104 | I 0.014 | Y 0.014 | S -0.081 | P -0.25 | R -0.053 | H 0.011 | T -0.005
K49: N -0.06 | T -0.001 | Q -0.033 | H -0.045 | S -0.037 | Y -0.077 | F -0.019 | V 0.024 | W -0.129 | E -0.097 | C 0.045 | P 0.016 | L -0.054 | R -0.004 | D -0.164 | M -0.021
C58: Q -0.768 | W -1.08 | M -0.896 | I -0.81 | G -0.81 | F -1 | A -0.935 | P -0.842 | K -1.06 | D -0.872 | Y -0.405 | L -0.789 | R -1.04 | S -0.697 | H -0.701 | V -0.903 | E -0.633
A57: C -0.039 | F -0.457 | L -0.582 | V -0.656 | D -0.182 | P -0.247 | K -0.06 | S -0.02 | N -0.266 | M -0.587 | I -0.614 | E -0.146 | Q -0.195 | G -0.071 | T -0.571 | W -0.669
D48: Q -0.385 | C -0.529 | E -0.072 | S -0.142 | N 0.024 | Y -0.139 | A -0.327 | T -0.045 | P -0.591 | V -0.596 | L -0.437 | R -0.536 | K -0.487 | I -0.579 | W -0.415 | H -0.449 | G -0.334
